Laboratory results: patent US20260201020A1, “METHODS FOR EXPRESSION OF FUSION-FREE BOVINE ULTRALONG CDR3 SCAFFOLD” (priority 2022, published 2026)
Read-outs that look alike come from different tables or passages of the source.

Key:
[1] = target: SARS-CoV-2 Spike RBD (SARS-CoV-2), P0DTC2
[2] = target: SARS-CoV-2 Spike RBD (SARS-CoV-2), P0DTC2; remark: listed apart in the source
[3] = target: SARS-CoV-2 Spike RBD (SARS-CoV-2), P0DTC2; remark: listed apart in the source
[4] = target: SARS-CoV-2 Spike RBD (SARS-CoV-2), P0DTC2; remark: listed apart in the source
[5] = target: SARS-CoV-2 Spike RBD (SARS-CoV-2), P0DTC2; remark: listed apart in the source
[6] = target: SARS-CoV-2 Spike RBD (SARS-CoV-2), P0DTC2; remark: listed apart in the source
[7] = target: SARS-CoV-2 Spike RBD (SARS-CoV-2), P0DTC2; remark: listed apart in the source

B1: R2G3-His (peptide)
chain: GGGGAMGSEGDKTCPDGYEHTCGCIGGCGCKRSACIGALCCQASLGGWLSDGETYTGGGGSGGGGSHHHHHH
modifications: not checked
B1 gave an Adjusted Binding Rate [1] of 31.9 nm/s, an Adjusted Binding Rate [2] of 34.6 nm/s and an Adjusted Binding Rate [3] of 3.39 nm/s. The Adjusted Binding Rate [4] was 9.51 nm/s, the Adjusted Binding Rate [5] was 5.39 nm/s and the Adjusted Binding Rate [6] was 3.4 nm/s. For the same binder, the Adjusted Binding Rate [7] was 2.1 nm/s.
